Results: US20090142806A1 (Pfizer, published 2009)

Legend:
human IL-17R-Ig = target: T1, human IL-17R-Ig (human); experiment: ELISA, IL-17R-Ig coated at 1.5 µg/ml, serial dilutions of biotin-conjugated IL-17F
T1 construct: also called IL-17R-IgG; IL-17R-Ig fusion protein
Description: (§1) After washing, saturating concentrations of avidin-horseradish peroxidase (HRP) were added, and plates were incubated for an additional 1 h at RT. Unbound avidin-HRP was washed using PBS/1% BSA, and the ELISA was developed using TBM.

human IL-17RC-Ig = target: T2, human IL-17RC-Ig (human); experiment: ELISA, IL-17RC-Ig coated at 1.5 µg/ml, serial dilutions of biotin-conjugated IL-17F
T2 construct: also called IL-17RC-IgG; IL-17RC-Ig fusion protein
T2 sequence (chain, as listed by the source limits assumed): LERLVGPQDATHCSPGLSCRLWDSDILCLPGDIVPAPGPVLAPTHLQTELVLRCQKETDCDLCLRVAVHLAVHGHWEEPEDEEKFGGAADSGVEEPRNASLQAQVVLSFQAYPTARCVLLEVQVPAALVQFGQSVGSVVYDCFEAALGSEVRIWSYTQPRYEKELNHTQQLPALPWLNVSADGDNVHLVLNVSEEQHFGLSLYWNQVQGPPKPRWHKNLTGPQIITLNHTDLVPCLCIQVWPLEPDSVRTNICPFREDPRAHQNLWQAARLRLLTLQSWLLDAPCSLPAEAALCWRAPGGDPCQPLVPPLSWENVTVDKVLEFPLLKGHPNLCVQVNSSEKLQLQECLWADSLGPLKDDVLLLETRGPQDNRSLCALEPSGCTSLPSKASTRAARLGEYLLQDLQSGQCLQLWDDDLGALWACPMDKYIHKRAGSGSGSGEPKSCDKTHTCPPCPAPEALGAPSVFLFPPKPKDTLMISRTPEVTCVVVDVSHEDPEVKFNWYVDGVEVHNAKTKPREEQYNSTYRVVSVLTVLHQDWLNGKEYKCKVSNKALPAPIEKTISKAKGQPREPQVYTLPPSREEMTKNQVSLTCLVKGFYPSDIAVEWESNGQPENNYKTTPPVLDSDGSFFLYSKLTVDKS
Description: as §1

T1 sequence (chain, as listed by the source limits assumed): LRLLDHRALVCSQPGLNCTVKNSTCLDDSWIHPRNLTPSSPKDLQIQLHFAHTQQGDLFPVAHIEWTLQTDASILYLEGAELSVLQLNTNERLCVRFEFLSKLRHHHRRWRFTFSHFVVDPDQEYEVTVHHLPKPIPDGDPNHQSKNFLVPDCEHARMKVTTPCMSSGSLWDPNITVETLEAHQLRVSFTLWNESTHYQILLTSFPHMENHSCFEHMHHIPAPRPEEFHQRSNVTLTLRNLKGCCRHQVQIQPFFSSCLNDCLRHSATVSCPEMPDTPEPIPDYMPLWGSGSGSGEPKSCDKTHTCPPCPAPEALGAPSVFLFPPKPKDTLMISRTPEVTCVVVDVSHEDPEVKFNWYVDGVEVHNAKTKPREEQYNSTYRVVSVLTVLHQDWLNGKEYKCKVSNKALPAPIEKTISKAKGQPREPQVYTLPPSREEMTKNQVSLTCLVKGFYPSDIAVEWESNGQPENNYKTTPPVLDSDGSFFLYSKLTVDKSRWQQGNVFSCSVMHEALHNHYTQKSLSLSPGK

B1: human IL-17F (IL-17F homodimer) (ligand)
chain: RKIPKVGHTFFQKPESCPPVPGGSMKLDIGIINENQRVSMSRNIESRSTSPWNYTVTWDPNRYPSEVVQAQCRNLGCINAQGKEDISMNSVPIQQETLVVRRKHQGCSVSFQLEKVLVTVGCTCVTPVIHHVQ
modifications: biotin-conjugated in the receptor-binding and inhibition ELISAs (sites not given)
notes: Used as purified protein, as recombinant conditioned media (293, COS) and as natural protein from T cell conditioned media; also called IL-17F/F; interleukin-17F
Human IL-17R-Ig
  EC50: 1.23 µg/mL
Human IL-17RC-Ig
  EC50: 15 µg/mL
